Key:
CLP-induced sepsis [1] = assay: survival in animal model of CLP-induced sepsis; format: in vivo, mouse; conditions: for survival rate: in comparison with PC-Gla and TRAP co-administration group, FIG. 14; for overall effectiveness in sepsis treatment: taken together, in comparison with PC-Gla and TRAP co-administered group
Method: Male C57BL/6 mice (6-7 weeks of age, 18-20 g) were purchased from Orient Biotech (Seongnam, Gyeonggi Province, Republic of Korea) and used after 12 days of acclimation. Five mice per cage were housed under the conditions of a controlled temperature (20-25° C.), humidity (40-45%), and 12:12 h day/night cycle, while being fed with a normal rodent pellet and water ad libitum. All animals were treated according to the Guidelines for the Care and Use of Laboratory Animals issued by Kyungpook National University.
(§1) To induce inflammation, male mice were anesthetized with 2% isoflurane (JW Pharmaceutical, Republic of Korea) in oxygen delivered via a small rodent gas anesthesia machine (RC2, Vetequip, Pleasanton, Calif.), first in a breathing chamber and then via a facemask. They were allowed to breathe spontaneously during this procedure. The CLP-induced inflammation model was prepared as previously described. In brief, a 2-cm midline incision was made to expose the cecum and adjoining intestine. The cecum was then tightly ligated with a 3.0-silk suture at 5.0 mm from the cecal tip and punctured once using a 22-gauge needle for the induction of high grade inflammation. It was then squeezed gently to extrude a small amount of feces from the perforation site and returned to the peritoneal cavity. The laparotomy site was then sutured with 4.0-silk. In sham control animals, the cecum was exposed but not ligated or punctured and then returned to the abdominal cavity. This protocol was approved by the Animal Care Committee at Kyungpook National University prior to the conduct of the study (IRP No, KNU 2012-13).
All experiments were performed independently at least three times. Values are expressed as means±SEM. The statistical significance of differences between test groups was evaluated using SPSS for Windows, version 16.0 (SPSS, Chicago, Ill.). Statistical relevance was determined by one-way analysis of variance (ANOVA) and Tukey's post-test. P values less than 0.05 were considered to indicate a statistical significance. Survival analysis of CLP-induced sepsis was performed using Kaplan-Meier analysis.

CLP-induced sepsis [2] = assay: H&E staining and histopathological examination of lung in CLP-induced sepsis; format: in vivo, mouse; conditions: for interstitial edema, infiltration of inflammatory cells and damage of pulmonary architecture: 200 nM intravenously 6 h after CLP, lungs 96 h after CLP, FIG. 15; for histopathologic score of pulmonary injury: in comparison with co-administration of PC-Gla and TRAP, FIG. 16
Method: as §1
Male C57BL/6 mice underwent CLP and were administered PC-Gla with TRAP, TFG, or TFMG (200 nM) intravenously at 6 h after CLP (n=5). Mice were euthanized 96 h after CLP. To analyze the phenotypic change of the lungs in mice, lung samples were removed from each mouse, washed tree times in PBS (pH 7.4) to remove remaining blood, fixed in 4% formaldehyde solution (Junsei, Tokyo, Japan) in PBS, pH 7.4 for 20 h at 4° C. After fixation, the samples were dehydrated through ethanol series, embedded in paraffin, sectioned into 4-μm sections, and placed on a slide. The slides were de-paraffinized in a 60° C. oven, rehydrated, and stained with hematoxylin (Sigma). To remove over-staining, the slides were quick dipped three times in 0.3% acid alcohol, and counterstained with eosin (Sigma). They are then washed in ethanol series and xylene, and then coverslipped. Light microscopic analysis of lung specimens was performed by blinded observation to evaluate pulmonary architecture, tissue edema, and infiltration of the inflammatory cells. The results were classified into four grades where Grade 1 represented normal histopathology; Grade 2 represented minimal neutrophil leukocyte infiltration; Grade 3 represented moderate neutrophil leukocyte infiltration, perivascular edema formation, and partial destruction of pulmonary architecture; and Grade 4 included dense neutrophil leukocyte infiltration, abscess formation, and complete destruction of pulmonary architecture.

[3] = test system: LPS-stimulated HUVEC cells; assay: cell-cell adhesion assay (leukocytes to HUVEC monolayers); format: cell-based, human; conditions: HUVECs, LPS 100 ng/mL 4 h, FIG. 21B
Method: Adherence of monocytes to endothelial cells was evaluated by fluorescent labeling of monocytes, as previously described. Briefly, monocytes were labeled with 5 μM Vybrant DiD for 20 min at 37° C. in phenol red-free RPMI containing 5% FBS. After washing, the cells (1.5×10^6 cells/mL, 200 μL/well) were resuspended in adhesion medium (RPMI containing 2% fetal bovine serum and 20 mM HEPES). The cells were then added to confluent monolayers of HUVECs in 96-well plates. Prior to the addition of cells, HUVECs were treated PC-Gla with TRAP, TFG, or TFMG for 6 h, followed by treatment with LPS (100 ng/mL, 4 h). Quantification of cell adhesion was determined as previously described.

Molecule	survival rate (CLP-induced sepsis [1])	overall effectiveness in sepsis treatment (CLP-induced sepsis [1])	interstitial edema, infiltration of inflammatory cells and damage of pulmonary architecture (CLP-induced sepsis [2])	histopathologic score of pulmonary injury (CLP-induced sepsis [2])	adhesion of leukocytes [3]
TFG: fusion polypeptide: TRAP at N-terminus and PC-Gla at C-terminus of short ferritin monomer fragment, forms nanocage (apparently SEQ ID NO: 14) (protein, Fusion polypeptide (1)) MGGTTFLLRNASGHMSSQIRQNYSTDVEAAVNSLVNLYLQASYTYLSLGFYFDRDDVALEGVSHFFRELAEEKREGYERLLKMQNQRGGRIFLQDIKKPAEDEWGKTPDAMKAAMALEKKLNQALLDLHALGSARTDPHLCDFLETHFLDEEVKLIKKMGDHLTNLHRLGGGSEFVDGGGSGTSANSFLEELRHSSLERECIEEICDFEEAKEIFQNVDDTLAFWSKHVLEHHHHHH	significantly improved	significantly effective	significantly alleviated	significantly superior effect	inhibited
TFMG: as TFG with an MMP-2 cleavable linker (GPLGLAG) between ferritin fragment C-terminus and PC-Gla (apparently SEQ ID NO: 15) (protein, Fusion polypeptide (2)) MGGTTFLLRNASGHMSSQIRQNYSTDVEAAVNSLVNLYLQASYTYLSLGFYFDRDDVALEGVSHFFRELAEEKREGYERLLKMQNQRGGRIFLQDIKKPAEDEWGKTPDAMKAAMALEKKLNQALLDLHALGSARTDPHLCDFLETHFLDEEVKLIKKMGDHLTNLHRLGGGSEFVDGGGSGTSGPLGLAGANSFLEELRHSSLERECIEEICDFEEAKEIFQNVDDTLAFWSKHVLEHHHHHH	significantly improved	more effective antiseptic than TFG	significantly alleviated	significantly superior effect	inhibited
